The values below come from US20210115149A1 (ABVISION, published 2021).

The test deals with human CD40 protein (human, UniProt P25942 21-193, limits assumed). As to the kind of experiment: ELISA screening of hybridoma wells against human CD40 protein. As to the method: Antibodies were created by electrofusion of human CD40-immunized mouse splenocytes (Balb/c strain) with SP2/0-A14 cells (ATCC) (Immunization procedure; dose, adjuvants, time course). Fused cells were seeded into 96-well plates and ELISA screening was conducted to identify wells that contain antibodies which interact with the human CD40 protein. Positive wells were further expanded and followed a limited dilution to isolate monoclonal hybridomas. Purified antibodies were used to test their ability to trigger CD40 signaling by an in-house created reporter system. Basically, an engineered 293T cell line was transduced to stably express the human CD40 protein. When testing the agonistic functions of CD40 antibodies, DNA plasmids of an NF-kB-driven luciferase reporter and Fc-gamma receptors were transiently transfected into established CD40-293T cells. Antibodies to be tested were added to the culture and incubated for 24 hours. Treated cells were harvested, lysed and analyzed on a plate reader for the activity of luciferase. Anti-human CD40 mAb clone #1E10-H2 and clone #2G9-B11 were tested binding to and activating human CD40. The sequences of the IgG heavy chain and light chain variable domains of anti-human CD40 agonistic mAb clone #1E10-H2 are shown in FIG. 1.
Background: An ELISA detects its analyte on a solid surface through an enzyme-linked reagent.

human CD40 protein, sequence (P25942 21-193 limits assumed): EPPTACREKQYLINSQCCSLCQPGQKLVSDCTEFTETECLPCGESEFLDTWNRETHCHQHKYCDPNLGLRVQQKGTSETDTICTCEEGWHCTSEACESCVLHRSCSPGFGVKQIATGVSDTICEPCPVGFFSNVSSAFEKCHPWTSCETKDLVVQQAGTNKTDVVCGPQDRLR

B1: Anti-human CD40 mAb clone #1E10-H2 (antibody, V domains shown)
VH: QVQLQQSGAELMKPGASVKISCKATGYTFSSYWIEWIKQRPGHVLEWIGEILPGSGSANYNERFKGKATFTADTSSNTAYMQLTSLTSEDSAVYYCARLRYYGSSPWFAYWGQGTLVTVSA
VL: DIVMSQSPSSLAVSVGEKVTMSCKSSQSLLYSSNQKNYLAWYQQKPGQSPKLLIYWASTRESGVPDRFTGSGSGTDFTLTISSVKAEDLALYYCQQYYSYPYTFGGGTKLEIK
notes: Mouse hybridoma monoclonal antibody (Balb/c), purified; also called anti-human CD40 agonistic mAb (clone #1E10-H2)
In the case of B1, the binding result is listed as “binds”.

B2: Anti-human CD40 mAb clone #2G9-B11 (antibody, mouse IgG1, V domains shown)
VH: EVQLVESGGGLVKPGGSLKLSCAASGFSFSSYAMSWVRQTPEKRLEWVATISSGGDYTYYPDSVKGRFTISRDNAKNTLYLQMTSLRSEDTAMYYCARRNHFTYWGQGTLVTVSA
VL: DIVMTQSHKFMSTSVGDRVSITCKASQDVVTSVAWYQQKPGQSPKLLIYWTSTRHTGVPDRFTGSGSGTDFTLTISNVQSEDLADYFCQQYSSYPLTFGAGTKLELK
notes: Mouse hybridoma monoclonal antibody (Balb/c), purified; also called anti-CD40 2G9-B11
Consider B2, for which the binding result is recorded as “binds”.
